The values below are quoted from earlier work in US20200069786A1, “COMPOSITION AND PROCESS FOR PREPARING VACCINE” (TREOS BIO ZRT., priority 2018, published 2020).

The data set deals with TSA.
Setting [1] is: TSA expression rate in LUNG cancer.

Like-named read-outs stand apart in the source and are kept apart here.

B1: ADAM29 (protein, UniProt Q9UKF5 194-820, looked up)
Disintegrin and …: WIHFRIVEIVVVIDNYLYIRYERNDSKLLEDLYVIVNIVDSILDVIGVKVLLFGLEIWTNKNLIVVDDVRKSVHLYCKWKSENITPRMQHDTSHLFTTLGLRGLSGIGAFRGMCTPHRSCAIVTFMNKTLGTFSIAVAHHLGHNLGMNHDEDTCRCSQPRCIMHEGNPPITKFSNCSYGDFWEYTVERTKCLLETVHTKDIFNVKRCGNGVVEEGEECDCGPLKHCAKDPCCLSNCTLTDGSTCAFGLCCKDCKFLPSGKVCRKEVNECDLPEWCNGTSHKCPDDFYVEDGIPCKERGYCYEKSCHDRNEQCRRIFGAGANTASETCYKELNTLGDRVGHCGIKNATYIKCNISDVQCGRIQCENVTEIPNMSDHTTVHWARFNDIMCWSTDYHLGMKGPDIGEVKDGTECGIDHICIHRHCVHITILNSNCSPAFCNKRGICNNKHHCHCNYLWDPPNCLIKGYGGSVDSGPPPKRKKKKKFCYLCILLLIVLFILLCCLYRLCKKSKPIKKQQDVQTPSAKEEEKIQRRPHELPPQSQPWVMPSQSQPPVTPSQSHPQVMPSQSQPPVTPSQSQPRVMPSQSQPPVMPSQSHPQLTPSQSQPPVTPSQRQPQLMPSQSQPPVTPS
Take B1: the “Expression Rate (ER) %” value under setting [1] is listed as 7%.

B2: CABYR (protein, UniProt O75952 1-493, looked up)
Calcium-binding tyrosine …: MISSKPRLVVPYGLKTLLEGISRAVLKTNPSNINQFAAAYFQELTMYRGNTTMDIKDLVKQFHQIKVEKWSEGTTPQKKLECLKEPGKTSVESKVPTQMEKSTDTDEDNVTRTEYSDKTTQFPSVYAVPGTEQTEAVGGLSSKPATPKTTTPPSSPPPTAVSPEFAYVPADPAQLAAQMLGKVSSIHSDQSDVLMVDVATSMPVVIKEVPSSEAAEDVMVAAPLVCSGKVLEVQVVNQTSVHVDLGSQPKENEAEPSTASSVPLQDEQEPPAYDQAPEVTLQADIEVMSTVHISSVYNDVPVTEGVVYIEQLPEQIVIPFTDQVACLKENEQSKENEQSPRVSPKSVVEKTTSGMSKKSVESVKLAQLEENAKYSSVYMEAEATALLSDTSLKGQPEVPAQLLDAEGAIKIGSEKSLHLEVEITSIVSDNTGQEESGENSVPQEMEGKPVLSGEAAEAVHSGTSVKSSSGPFPPAPEGLTAPEIEPEGESTAE
B2: the “Expression Rate (ER) %” value is, setting by setting: (TSA expression rate in Esophageal) 17%; under setting [1], 16%.

B3: MAGE-B3 (protein, UniProt O15480 1-346, looked up)
Melanoma-associated antigen B3: MPRGQKSTLHAREKRQQTRGQTQDHQGAQITATNKKKVSFSSPLILGATIQKKSAGRSRSALKKPQRALSTTTSVDVSYKKSYKGANSKIEKKQSFSQGLSSTVQSRTDPLIMKTNMLVQFLMEMYKMKKPIMKADMLKIVQKSHKNCFPEILKKASFNMEVVFGVDLKKVDSTKDSYVLVSKMDLPNNGTVTRGRGFPKTGLLLNLLGVIFMKGNCATEEKIWEFLNKMRIYDGKKHFIFGEPRKLITQDLVKLKYLEYRQVPNSNPARYEFLWGPRAHAETSKMKVLEFWAKVNKTVPSAFQFWYEEALRDEEERVQAAAMLNDGSSAMGRKCSKAKASSSSHA
Take B3: the “Expression Rate (ER) %” value under setting [1] is recorded as 0%.

B4: GAGE-7 (protein, UniProt O76087 1-117, looked up)
G antigen 7: MSWRGRSTYYWPRPRRYVQPPEMIGPMRPEQFSDEVEPATPEEGEPATQRQDPAAAQEGEDEGASAGQGPKPEAHSQEQGHPQTGCECEDGPDGQEMDPPNPEEVKTPEEGEKQSQC
B4: where the note is “BREAST”, the “TSA Expression Rate (ER)” value is 31%. Moreover, the “Expression Rate (ER) %” value (TSA expression rate in HEAD and NECK) was 9%.

B5: SPAG6 (protein, UniProt O75602 1-509, looked up)
Sperm-associated antigen 6: MSQRQVLQVFEQYQKARTQFVQMVAELATRPQNIETLQNAGVMSLLRTLLLDVVPTIQQTAALALGRLANYNDDLAEAVVKCDILPQLVYSLAEQNRFYKKAAAFVLRAVGKHSPQLAQAIVDCGALDTLVICLEDFDPGVKEAAAWALRYIARHNAELSQAVVDAGAVPLLVLCIQEPEIALKRIAASALSDIAKHSPELAQTVVDAGAVAHLAQMILNPDAKLKHQILSALSQVSKHSVDLAEMVVEAEIFPVVLTCLKDKDEYVKKNASTLIREIAKHTPELSQLVVNAGGVAAVIDCIGSCKGNTRLPGIMMLGYVAAHSENLAMAVIISKGVPQLSVCLSEEPEDHIKAAAAWALGQIGRHTPEHARAVAVTNTLPVLLSLYMSTESSEDLQVKSKKAIKNILQKCTYLPALEPFLYDAPPNILKHVVGQFSKVLPHDSKARRLFVTSGGLKKVQEIKAEPGSLLQEYINSINSCYPEEIVRYYSPGYSDTLLQRVDSYQPLNN
On to B5, for which the “TSA Expression Rate (ER)” value (BREAST) was 21% and the “TSA Expression Rate (ER)” value (LUNG) is recorded as 29%.

B6: CALR3 (protein, UniProt Q96L12 20-384, looked up)
Calreticulin-3: TVYFQEEFLDGEHWRNRWLQSTNDSRFGHFRLSSGKFYGHKEKDKGLQTTQNGRFYAISARFKPFSNKGKTLVIQYTVKHEQKMDCGGGYIKVFPADIDQKNLNGKSQYYIMFGPDICGFDIKKVHVILHFKNKYHENKKLIRCKVDGFTHLYTLILRPDLSYDVKIDGQSIESGSIEYDWNLTSLKKETSPAESKDWEQTKDNKAQDWEKHFLDASTSKQSDWNGDLDGDWPAPMLQKPPYQDGLKPEGIHKDVWLHRKMKNTDYLTQYDLSEFENIGAIGLELWQVRSGTIFDNFLITDDEEYADNFGKATWGETKGPEREMDAIQAKEEMKKAREEEEEELLSGKINRHEHYFNQFHRRNEL
As for B6, the “TSA Expression Rate (ER)” value (BREAST) was 0%. Moreover, the “Expression Rate (ER) %” value is 16% (TSA expression rate in CRC); 40% (TSA expression rate in GASTRIC cancer); 80% (TSA expression rate in Kidney); 9% under setting [1]; 44% (TSA expression rate in MELANOMA).

B7: LEMD1 (protein, UniProt Q68G75 1-181, looked up)
LEM domain-containing protein …: MVDVKCLSDCKLQNQLEKLGFSPGPILPSTRKLYEKKLVQLLVSPPCAPPVMNGPRELDGAQDSDDSEELNIILQGNIILSTEKSKKLKKWPEASTTKRKAVDTYCLDYKPSKGRRWAARAPSTRITYGTITKERDYCAEDQTIESWREEGFPVGLKLAVLGIFIIVVFVYLTVENKSLFG
As for B7, the “TSA Expression Rate (ER)” value (BREAST) is 35%. Also, the “Expression Rate (ER) %” value is 94% (TSA expression rate in CRC) and 23% (TSA expression rate in PROSTATE cancer).

B8: COX6B2 (protein, UniProt Q6YFQ2 1-88, looked up)
Cytochrome c oxidase subunit …: MLDVEAQEPPKGKWSTPPFDPRFPSQNQIRNCYQNFLDYHRCLKTRTRRGKSTQPCEYYFRVYHSLCPISWVESWNEQIKNGIFAGKI
For B8, under “LUNG”, the “TSA Expression Rate (ER)” value is 24%.

B9: THEG (protein, UniProt Q9P2T0 1-379, looked up)
Sperm microtubule associated …: MGDSRRRSLGNQPSSEAAGRSEREQDGDPRGLQSSVYESRRVTDPERQDLDNAELGPEDPEEELPPEEVAGEEFPETLDPKEALSELERVLDKDLEEDIPEISRLSISQKLPSTTMTKARKRRRRRRLMELAEPKINWQVLKDRKGRCGKGYAWISPCKMSLHFCLCWPSVYWTERFLEDTTLTITVPAVSRRVEELSRPKRFYLEYYNNNRTTPVWPIPRSSLEYRASSRLKELAAPKIRDNFWSMPMSEVSQVSRAAQMAVPSSRILQLSKPKAPATLLEEWDPVPKPKPHVSDHNRLLHLARPKAQSDKCVPDRDPRWEVLDVTKKVVASPRIISLAKPKVRKGLNEGYDRRPLASMSLPPPKASPEKCDQPRPGL
As to B9, the “TSA Expression Rate (ER)” value (LUNG) is listed as 31%.

B10: PIWIL3 (protein, UniProt Q7Z3Z3 1-882, looked up)
Piwi-like protein 3: MPGRARTRARGRARRRESYQQEAPGGPRAPGSATTQEPPQLQSTPRPLQEEVPVVRPLQPRAARGGAGGGAQSQGVKEPGPEAGLHTAPLQERRIGGVFQDLVVNTRQDMKHVKDSKTGSEGTVVQLLANHFRVISRPQWVAYKYNVDYKPDIEDGNLRTILLDQHRRKFGERHIFDGNSLLLSRPLKERRVEWLSTTKDKNIVKITVEFSKELTPTSPDCLRYYNILFRRTFKLLDFEQVGRNYYTKKKAIQLYRHGTSLEIWLGYVTSVLQYENSITLCADVSHKLLRIETAYDFIKRTSAQAQTGNIREEVTNKLIGSIVLTKYNNKTYRVDDIDWKQNPEDTFNKSDGSKITYIDYYRQQHKEIVTVKKQPLLVSQGRWKKGLTGTQREPILLIPQLCHMTGLTDEICKDYSIVKELAKHTRLSPRRRHHTLKEFINTLQDNKKVRELLQLWDLKFDTNFLSVPGRVLKNANIVQGRRMVKANSQGDWSREIRELPLLNAMPLHSWLILYSRSSHREAMSLKGHLQSVTAPMGITMKPAEMIEVDGDANSYIDTLRKYTRPTLQMGMSCLLVFKVICILPNDDKRRYDSIKRYLCTKCPIPSQCVVKKTLEKVQARTIVTKIAQQMNCKMGGALWKVETDVQRTMFVGIDCFHDIVNRQKSIAGFVASTNAELTKWYSQCVIQKTGEELVKELEICLKAALDVWCKNESSMPHSVIVYRDGVGDGQLQALLDHEAKKMSTYLKTISPNNFTLAFIVVKKRINTRFFLKHGSNFQNPPPGTVIDVELTRNEWYDFFIVSQSVQDGTVTPTHYNVIYDTIGLSPDTVQRLTYCLCHMYYNLPGIIRVPAPCHYAHKLAYLVGQSIHQEPNRSLSTRLFYL
B10: the “TSA Expression Rate (ER)” value (OVARIAN) is reported as 88%. Also, the “Expression Rate (ER) %” value is reported as 96% (TSA expression rate in CRC) and 7% under setting [1].

B11: PTTG-1 (protein, UniProt O95997 2-202, looked up)
Securin: ATLIYVDKENGEPGTRVVAKDGLKLGSGPSIKALDGRSQVSTPRFGKTFDAPPALPKATRKALGTVNRATEKSVKTKGPLKQKQPSFSAKKMTEKTVKAKSSVPASDDAYPEIEKFFPFNPLDFESFDLPEEHQIAHLPLSGVPLMILDEERELEKLFQLGPPSPVKMPSPPWESNLLQSPSSILSTLDVELPPVCCDIDI
With B11, the “TSA Expression Rate (ER)” value (LUNG) is 20%.

B12: HORMAD2 (protein, UniProt Q8N7B1 1-307, looked up)
HORMA domain-containing …: MATAQLSHCITIHKASKETVFPSQITNEHESLKMVKKLFATSISCITYLRGLFPESSYGERHLDDLSLKILREDKKCPGSLHIIRWIQGCFDALEKRYLRMAVLTLYTDPMGSEKVTEMYQFKFKYTKEGATMDFDSHSSSTSFESGTNNEDIKKASVLLIRKLYILMQDLEPLPNNVVLTMKLHYYNAVTPHDYQPLGFKEGVNSHFLLFDKEPINVQVGFVSTGFHSMKVKVMTEATKVIDLENNLFRENSTTEIAHQGLDCDEEEECNDHIQRMNFVCSQQSSECSRKKRKVSEPVKVFIPNRK
Consider B12, for which the “Expression Rate (ER) %” value under setting [1] was 5%.
